One experiment concerns the target recombinant hPD-L1 hIgG1 Fc-fusion protein (R&D Systems) (human) (UniProt Q9NZQ7). As to the kind of experiment: flow cytometry, control HEK 293 cells, one dose of hPD-L1 Fc fusion. (Flow cytometry measures light scatter and fluorescence of single cells or particles in a stream.)
Sequence of UniProt Q9NZQ7 (Q9NZQ7 19-239 limits assumed): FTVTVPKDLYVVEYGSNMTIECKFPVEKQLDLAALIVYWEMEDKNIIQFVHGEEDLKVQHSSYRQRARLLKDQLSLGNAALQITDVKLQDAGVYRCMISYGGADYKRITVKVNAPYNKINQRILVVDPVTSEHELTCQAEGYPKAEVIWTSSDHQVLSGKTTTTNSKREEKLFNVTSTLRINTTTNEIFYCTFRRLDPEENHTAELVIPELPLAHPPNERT
With Control (row of Table 2), the average binding normalized to wild type (AVE-hPD-L1) (relative to wild type) is 0.0144.

The target of the next experiment is recombinant hPD-L2 hIgG1 Fc-fusion protein (R&D Systems) (human) (UniProt Q9BQ51). Put plainly: flow cytometry, HEK 293 cells displaying the PD-1 construct, one dose of hPD-L2 Fc fusion, percent of PD-1-positive cells bound.
Sequence of UniProt Q9BQ51 (Q9BQ51 20-219 limits assumed): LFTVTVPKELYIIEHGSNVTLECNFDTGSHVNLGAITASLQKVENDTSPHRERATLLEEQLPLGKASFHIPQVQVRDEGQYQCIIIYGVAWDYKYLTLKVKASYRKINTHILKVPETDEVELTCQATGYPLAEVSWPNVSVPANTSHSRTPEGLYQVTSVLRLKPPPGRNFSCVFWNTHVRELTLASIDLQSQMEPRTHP
Consider “human PD-1 mutant D77E (hPD-1 Type I mCherry, on HEK 293 cells) (from UniProt Q15116 25-168) (receptor)”, for which the average binding normalized to wild type (AVE-hPD-L2) (relative to wild type) is 1.13.
As for “human PD-1 mutant E84Y (hPD-1 Type I mCherry, on HEK 293 cells) (from UniProt Q15116 25-168) (receptor)”, the average binding normalized to wild type (AVE-hPD-L2) (relative to wild type) was determined as 0.999.
On the same count and under the same terms, the same measure for “human PD-1 mutant E136N (hPD-1 Type I mCherry, on HEK 293 cells) (from UniProt Q15116 25-168) (receptor)”: 0.82; for “human PD-1 mutant E136Q (hPD-1 Type I mCherry, on HEK 293 cells) (from UniProt Q15116 25-168) (receptor)”: 0.967; for “human PD-1 mutant G124M (hPD-1 Type I mCherry, on HEK 293 cells) (from UniProt Q15116 25-168) (receptor)”: 0.705.
On the same count and under the same terms, for “human PD-1 mutant G124V (hPD-1 Type I mCherry, on HEK 293 cells) (from UniProt Q15116 25-168) (receptor)” the value was 1.16.
On the same count and under the same terms, the same measure for “human PD-1 mutant G124Y (hPD-1 Type I mCherry, on HEK 293 cells) (from UniProt Q15116 25-168) (receptor)”: 0.557; for “human PD-1 mutant I126V (hPD-1 Type I mCherry, on HEK 293 cells) (from UniProt Q15116 25-168) (receptor)”: 0.711; for “human PD-1 mutant I134D (hPD-1 Type I mCherry, on HEK 293 cells) (from UniProt Q15116 25-168) (receptor)”: 0.0105.
As for “human PD-1 mutant I134F (hPD-1 Type I mCherry, on HEK 293 cells) (from UniProt Q15116 25-168) (receptor)”, the average binding normalized to wild type (AVE-hPD-L2) (relative to wild type) stood at 1.11.
As for “human PD-1 mutant I134N (hPD-1 Type I mCherry, on HEK 293 cells) (from UniProt Q15116 25-168) (receptor)”, the average binding normalized to wild type (AVE-hPD-L2) (relative to wild type) came out at 0.0534.
On the same count and under the same terms, the same measure for “human PD-1 mutant I134Q (hPD-1 Type I mCherry, on HEK 293 cells) (from UniProt Q15116 25-168) (receptor)”: 0.0252; for “human PD-1 mutant I134T (hPD-1 Type I mCherry, on HEK 293 cells) (from UniProt Q15116 25-168) (receptor)”: 0.307.
For “human PD-1 mutant K78R (hPD-1 Type I mCherry, on HEK 293 cells) (from UniProt Q15116 25-168) (receptor)”, the average binding normalized to wild type (AVE-hPD-L2) (relative to wild type) amounted to 0.125.
The same measure, in the same setting: for “human PD-1 mutant K131H (hPD-1 Type I mCherry, on HEK 293 cells) (from UniProt Q15116 25-168) (receptor)” the value was 1.58; for “human PD-1 mutant L128V (hPD-1 Type I mCherry, on HEK 293 cells) (from UniProt Q15116 25-168) (receptor)”, 1.03.
In the case of “human PD-1 mutant L128W (hPD-1 Type I mCherry, on HEK 293 cells) (from UniProt Q15116 25-168) (receptor)”, the average binding normalized to wild type (AVE-hPD-L2) (relative to wild type) was found to be 1.03.
For “human PD-1 mutant N66E (hPD-1 Type I mCherry, on HEK 293 cells) (from UniProt Q15116 25-168) (receptor)”, the average binding normalized to wild type (AVE-hPD-L2) (relative to wild type) worked out at 0.00438.
On the same count and under the same terms, the same measure for “human PD-1 mutant N66Q (hPD-1 Type I mCherry, on HEK 293 cells) (from UniProt Q15116 25-168) (receptor)”: 0.0105.
The same measure, in the same setting: for “human PD-1 mutant Q75N (hPD-1 Type I mCherry, on HEK 293 cells) (from UniProt Q15116 25-168) (receptor)” the value was 1.13.
Regarding “human PD-1 mutant S73K (hPD-1 Type I mCherry, on HEK 293 cells) (from UniProt Q15116 25-168) (receptor)”, the average binding normalized to wild type (AVE-hPD-L2) (relative to wild type) came to 1.
The same measure, in the same setting: for “human PD-1 mutant S73R (hPD-1 Type I mCherry, on HEK 293 cells) (from UniProt Q15116 25-168) (receptor)” the value was 1.11; for “human PD-1 mutant T76D (hPD-1 Type I mCherry, on HEK 293 cells) (from UniProt Q15116 25-168) (receptor)”, 0.205.
“human PD-1 mutant T76E (hPD-1 Type I mCherry, on HEK 293 cells) (from UniProt Q15116 25-168) (receptor)”: the average binding normalized to wild type (AVE-hPD-L2) (relative to wild type) amounted to 0.642.
As to “human PD-1 mutant T76N (hPD-1 Type I mCherry, on HEK 293 cells) (from UniProt Q15116 25-168) (receptor)”, the average binding normalized to wild type (AVE-hPD-L2) (relative to wild type) turned out to be 0.998.
With “human PD-1 mutant T76Q (hPD-1 Type I mCherry, on HEK 293 cells) (from UniProt Q15116 25-168) (receptor)”, the average binding normalized to wild type (AVE-hPD-L2) (relative to wild type) is 0.98.
Still for that read-out and setting: for “human PD-1 mutant T76S (hPD-1 Type I mCherry, on HEK 293 cells) (from UniProt Q15116 25-168) (receptor)” the value was 0.954.
As to “human PD-1 mutant T76Y (hPD-1 Type I mCherry, on HEK 293 cells) (from UniProt Q15116 25-168) (receptor)”, the average binding normalized to wild type (AVE-hPD-L2) (relative to wild type) was determined as 1.11.
Take “human PD-1 mutant Y68K (hPD-1 Type I mCherry, on HEK 293 cells) (from UniProt Q15116 25-168) (receptor)”: the average binding normalized to wild type (AVE-hPD-L2) (relative to wild type) amounted to 0.0223.
Take “human PD-1 mutant Y68N (hPD-1 Type I mCherry, on HEK 293 cells) (from UniProt Q15116 25-168) (receptor)”: the average binding normalized to wild type (AVE-hPD-L2) (relative to wild type) worked out at 0.108.
On the same count and under the same terms, the same measure for “human PD-1 mutant Y68Q (hPD-1 Type I mCherry, on HEK 293 cells) (from UniProt Q15116 25-168) (receptor)”: 0.202; for “human PD-1 mutant Y68R (hPD-1 Type I mCherry, on HEK 293 cells) (from UniProt Q15116 25-168) (receptor)”: 0.0334.

For the next experiment the target is unchanged. As to the kind of experiment: flow cytometry, control HEK 293 cells, one dose of hPD-L2 Fc fusion.
For the substance Control (row of Table 2), the average binding normalized to wild type (AVE-hPD-L2) (relative to wild type) turned out to be 0.00648.

Source of the values: US20220047729A1.
